In patent publication US6429191B1, “Treatment of hearing impairments” (Genentech, Inc., priority 1996, dated 2002):

Key:
[1] = tested on: SGNs in cochlear explants; assay: Protective effects in cochlear explant cultures co-treated with ototoxins, SGN peripheral axon count; type: cell-based, rat; conditions: for protective effects on SGNs against ototoxins: growth factor added together with ototoxin, data not shown
Method: (§1) FIGS. 9A and 9B depict quantitation of protective effects of NT-4/5 on SGNs (FIG. 9A) and hair cells (FIG. 9B). […] The same experimental procedures were performed as in FIGS. 6A and 6B. The error bars are SEM and ** indicate that as compared to the cultures containing an ototoxin alone, p<0.001. “Con” indicates control culture.
FIG. 10 depicts quantitation of neuroprotection of different neurotrophins against sodium salicylate (Sal) and gentamicin (Gent). […] Sodium salicylate (5 mM) or gentamicin (3 mM) was added either alone or in combination with one of the neurotrophins (20 ng/ml) to 2-day cultures and the cultures were kept for 2 more days. The same experimental procedures were performed as in FIGS. 6A and 6B. […] The error bars are SEM and ** indicate that as compared to the cultures containing an ototoxin alone, p<0.001.
(§2) The protective effect of neurotrophins against ototoxicity was determined in the organotypic cultures of postnatal cochlear explants described in the Examples above. […] A human recombinant neurotrophin (Genentech, Inc.) or other growth factors, alone or in combination, was added to the culture at the same time the ototoxin was added.
(§3) Two days after treatment with ototoxins or co-treatment with ototoxins and neurotrophins (or other growth factors), the cochlear explant cultures were fixed in 4% paraformaldehyde in 0.1 M phosphate buffer (pH 7.4) for 30 min, washed in PBS, and subjected to double histochemical staining of the cochlear explant cultures. After incubation with the monoclonal antibody N52 against neurofilament protein (200 kd) in 1% Triton X100 containing 3% normal goat serum (“NGS”) for 2 days at 4° C., the explants were incubated with a Texas red-conjugated goat anti-mouse secondary antibody (1:70; Cappel) at room temperature for 40 min. The preparations were then stained with FITC-conjugated phalloidin (0.5 μg/ml; Sigma) for 45 min, washed in PBS and mounted in Fluoromount-G (Southern Biotechnology Associates, Birmingham, Ala.) which contains an anti-fading agent.

[2] = tested on: spiral ganglion neurons (SGNs); assay: Neurotrophin protection of dissociated SGNs against cisplatin neurotoxicity; type: cell-based, rat; conditions: 10 ng/ml neurotrophin
Text: Quantitation of viable SGNs was done in the same way as in FIG. 1. The error bars stand for SEM. […] While no difference was found between cultures containing NT-4/5 and cultures containing BDNF, the difference between cultures containing NT-3 and cultures containing NT-4/5 or BDNF was statistically very significant (P<0.001).

[3] = tested on: spiral ganglion neurons (SGNs); assay: Survival of dissociated spiral ganglion neurons in serum-free culture; type: cell-based, rat; conditions: for survival-promoting effect on SGNs: P5 rat SGNs, neurotrophins 0.1-50 ng/ml
Method: FIG. 1 is a histogram depicting the effects of NT-4/5 on SGN survival. SGNs were prepared from P5 rats, plated and kept for 2 days in serum-free medium in the absence or presence of NT-4/5 at different concentrations. Viable SGNs were identified by labeling with a neurofilament monoclonal antibody (N52), viewed under a Zeiss Axiophot microscope, and counted using a grid ocular reticule covering an area of […]. For each culture, about 10 randomly selected fields were counted. Data were collected from 3 to 5 cultures and normalized as a percentage of the number of viable neurons in the control cultures in each of the experiments. The error bars represent SEM.
FIG. 2 is a histogram depicting the effects of different neurotrophins on SGN survival. SGNs were prepared from P5 rats and maintained for 2 days in serum-free medium without or with different neurotrophins at different concentrations. Quantitation of viable SGNs was made in the same way as in FIG. 1 and the error bars are SEM. […] Difference between NT-3 and NT-4/5 or BDNF was very significant at all doses (P<0.001). No statistical difference was found between NT-4/5 and BDNF except the dose of 0.1 ng/ml (P<0.01).
Identical results (not shown) were also obtained with a different neuronal marker, a monoclonal antibody 3A10 (Furley et al., 1990). SGNs were dissociated from postnatal day 5 (P5) rat cochleae and plated in defined serum-free medium. […] The enzyme was inactivated with a mixture of 0.005% soybean trypsin inhibitor (Sigma) and 0.005% DNase (Worthington) before trituration with 0.05% DNase in Eagle's Basal Medium (“BME”). The dissociated cells were preplated on a 35 mm untreated tissue culture dish for 25 min to enrich the neuronal population. Under these experimental procedures, about 10% of the cell population were spiral ganglion neurons (“SGNs”) as determined by immunocytochemistry with a monoclonal antibody (N52; Boehringer) against neurofilaments (200 kd; Boehringer). […] Cells were plated at a density of 80,000/well. In control cultures about 75% of SGNs died after 2 days, presumably due to a lack of growth factors.

[4] = tested on: hair cells in cochlear explants; assay: Protective effects in cochlear explant cultures co-treated with ototoxins, hair cell count; type: cell-based, rat; conditions: for protective effects on hair cells against ototoxins: growth factor added together with ototoxin, data not shown
Method: as §1, §2, §3

[5] = target: trkC receptor (Homo sapiens, UniProt Q16288); conditions: compared with NT-3; cited from earlier work
Chain of trkC receptor (Q16288 32-839): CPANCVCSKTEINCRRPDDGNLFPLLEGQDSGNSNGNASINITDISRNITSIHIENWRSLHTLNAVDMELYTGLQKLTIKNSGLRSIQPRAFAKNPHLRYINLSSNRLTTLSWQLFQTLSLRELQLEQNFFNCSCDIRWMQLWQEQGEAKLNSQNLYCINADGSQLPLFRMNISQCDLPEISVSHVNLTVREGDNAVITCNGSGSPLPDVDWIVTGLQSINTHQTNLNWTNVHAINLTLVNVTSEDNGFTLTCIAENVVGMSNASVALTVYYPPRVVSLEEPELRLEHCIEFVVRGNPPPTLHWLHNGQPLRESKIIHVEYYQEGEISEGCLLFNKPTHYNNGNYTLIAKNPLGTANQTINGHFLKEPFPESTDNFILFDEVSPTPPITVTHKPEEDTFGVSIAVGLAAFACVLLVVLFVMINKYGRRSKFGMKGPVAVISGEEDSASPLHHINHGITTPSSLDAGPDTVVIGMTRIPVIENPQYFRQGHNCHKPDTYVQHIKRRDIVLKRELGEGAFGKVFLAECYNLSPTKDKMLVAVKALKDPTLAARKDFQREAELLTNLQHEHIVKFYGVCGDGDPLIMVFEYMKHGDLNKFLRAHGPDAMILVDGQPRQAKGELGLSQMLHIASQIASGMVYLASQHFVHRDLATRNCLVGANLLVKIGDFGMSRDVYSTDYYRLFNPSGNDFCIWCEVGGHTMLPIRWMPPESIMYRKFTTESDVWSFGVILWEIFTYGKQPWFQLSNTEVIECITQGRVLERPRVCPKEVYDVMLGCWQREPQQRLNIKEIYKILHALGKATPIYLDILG

| Molecule | survival-promoting effect on SGNs ([3]; 2 days, serum-free medium) | protective effects on SGNs against ototoxins [1] | protective effects on hair cells against ototoxins [4] | other results |
| --- | --- | --- | --- | --- |
| neurotrophin-4/5 (protein, UniProt P34130 81-210, looked up, Neurotrophin-4) Neurotrophin-4: GVSETAPASRRGELAVCDAVSGWVTDRRTAVDLRGREVEVLGEVPAAGGSPLRQYFFETRCKADNAEEGGPGAGGGGCRGVDRRHWVSECKAKQSYVRALTADAQGRVGWRWIRIDTACVCTLLSRTGRA | greatly enhanced the number of surviving SGNs in a dose-dependent manner | – | – | neuroprotection of SGNs against sodium salicylate and gentamicin ([1]; 20 ng/ml neurotrophin, sodium salicylate 5 mM or gentamicin 3 mM): significant neuroprotection; number of SGNs in control cultures ([1]; 20 ng/ml, no ototoxin): did not enhance; protection of SGNs from the three ototoxins ([1]; 20 ng/ml, sodium salicylate 5 mM, gentamicin 3 mM or cisplatin 4 μg/ml, 2 days co-treatment): significantly protected SGNs from the three ototoxins; percentage of surviving SGNs compared with control cultures lacking cisplatin ([2]; 1 μg/ml or 2 μg/ml cisplatin, 2 days): higher than that in the control cultures lacking cisplatin; protection of SGNs compared with cultures containing cisplatin alone ([2]; 4 μg/ml cisplatin): significantly protected SGNs from cell death; survival level, % of control cultures in the absence of cisplatin ([2]; 4 μg/ml cisplatin, 2 days): 70%; potency on SGN survival compared with other neurotrophins ([3]; 0.1 ng/ml): more potent than BDNF; maximal effect, increase in number of surviving SGNs ([3]; 10 ng/ml, 2 days, serum-free medium, vs control cultures): approximately 3 fold; synergistic/additive effects on SGN survival when added together with BDNF or NT-3 ([3]; saturated concentrations): no additive effects; number of hair cells in control cultures ([4]; 20 ng/ml, no ototoxin): did not enhance |
| TGF-β3: transforming growth factor (protein, UniProt P10600 301-412, looked up) Transforming growth factor …: ALDTNYCFRNLEENCCVRPLYIDFRQDLGWKWVHEPKGYYANFCSGPCPYLRSADTTHSTVLGLYNTLNPEASASPCCVPQDLEPLTILYYVGRTPKVEQLSNMVVKSCKCS | No survival-promoting effects | did not show detectable protective effects | did not show detectable protective effects | – |
| FGF-5: growth factor (R & D Systems) (protein, UniProt P12034 21-268, looked up) Fibroblast growth factor 5: HGEKRLAPKGQPGPAATDRNPRGSSSRQSSSSAMSSSSASSSPAASLGSQGSGLEQSSFQWSPSGRRTGSLYCRVGIGFHLQIYPDGKVNGSHEANMLSVLEIFAVSQGIVGIRGVFSNKFLAMSKKGKLHASAKFTDDCKFRERFQENSYNTYASAIHRTEKTGREWYVALNKRGKAKRGCSPRVKPQHISTHFLPRFKQSEQPELSFTVTVPEKKKPPSPIKPKIPLSAPRKNTNSVKYRLKFRFG | – | did not show detectable protective effects | did not show detectable protective effects | – |
| E92A NT-3: NT-3 with mutation at position E92 to alanine (protein, UniProt P20783 139-257, looked up, variant E92A, Neurotrophin-3, NT-3 with mutation at position E92 to alanine) Neurotrophin-3: YAEHKSHRGEYSVCDSESLWVTDKSSAIDIRGHQVTVLGEIKTGNSPVKQYFYETRCKEARPVKNGCRGIDDKHWNSQCKTSQTYVRALTSANNKLVGWRWIRIDTSCVCALSRKIGRT | – | – | – | trkC binding of NT-3 mutant [5]: increased trkC binding |
| TGF-β2: transforming growth factor (protein, UniProt P61812 303-414, looked up) Transforming growth factor …: ALDAAYCFRNVQDNCCLRPLYIDFKRDLGWKWIHEPKGYNANFCAGACPYLWSSDTQHSRVLSLYNTINPEASASPCCVSQDLEPLTILYYIGKTPKIEQLSNMIVKSCKCS | No survival-promoting effects | did not show detectable protective effects | did not show detectable protective effects | – |
| FGF-7: growth factor (R&D Systems) (protein, UniProt P21781 32-194, looked up) Fibroblast growth factor 7: CNDMTPEQMATNVNCSSPERHTRSYDYMEGGDIRVRRLFCRTQWYLRIDKRGKVKGTQEMKNNYNIMEIRTVAVGIVAIKGVESEFYLAMNKEGKLYAKKECNEDCNFKELILENHYNTYASAKWTHNGGEMFVALNQKGIPVRGKKTKKEQKTAHFLPMAIT | – | did not show detectable protective effects | did not show detectable protective effects | – |
